Measurements as given in a protein production outcome set (Wang et al. 2014).

Experiment: label from the status in PepcDB records
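Also: failed if final PepcDB status was selected cloned or expressed and not failed if soluble or beyond.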

Sequence | protein production
MPILIVAVGVLILLFLIIKVKLNTFVSLIVVSFLVAIGLGMDINKIVLSIETGIGGQLGHLALVFGLGAMLGRLVSDAGGGYRIAITLIDKFGRKRIQAAVVVASFIIGIALFFEVGLVLLIPIVYAIAKELKMPFLYLGIPMAAALNVTHGFLPPHPAPTAISVAYGAHIGQVLLFGIIIAVPTTVIAGPLFNKFAMKRFPGAYQKHGNLSGLGPRKEFQLDETPGFAISAVTSLFPVIFMAMATIFSLLLSEHSKGKDIIEFIGTPGTAMLISLLLALYTMGYARKISMQEIGRSISESISQIAMMLLIIGGGGAFKQVLIDGGVGDYVADFFRQTNMSPLFVAWTIAAVLRLCLGSATVAALTTAGMAAPLMEAGSVNPALMVLATGAGSVIACHVNDAGFWMVKEFFGLSMKETFQTWTLLTTVLSVTGLGCVLLAGLVM | failed
MDGSEDDPTIFSARCLPSDPRLWATVTNSYLGTRVYHDTIHINGVYNGAVGDTHRASLPSPLNVQLEAPAGTEQLTETFTLDTNTGSFLHTLEGPSFRASQRIYAHRVLPHVLVFSVSIARLTTGNKPITVPLRADFSPESPDLDLRVGPDFQGLRYLHGHVLNPEQPGEPQQEVHMLWMPVPPALTLGEEEKDRTWEFLTVVGSSQAEAQDCFAEALQLQTRGVLYTIHADSWGRLWAGCGLDVAGPLALRQALRGSLYYLFSELPQPGTQGFISHGLSPGGLSNGSKEECYWGHIFWDQDIWMFPNILMFHPEAARAILEYRVRTLGGALKNGQNLGYQGAKFAWESASTGLEVCPEDIYGTQEIHINGAVALAFQLYYYYTQDSKLFQEDGGWDVVSSVAEFWCSRVEWSSQDKMYHLKGVMPPDEYHSGVNNSVYTNVLVQNSLHFAAALAKDLGLPIRKQWLEVADRIKIPFDSEQNFHPEFDGYERGEEVKQADVVLLGYPVPFPLTPDIRRKNLETYEAVTSPQGPAMTWSMFAVGWMELRDPSRAQVHLSRSFANVTEPFKVWTENADGSGAVNFLTGMGGFLQAALFGCTGFRITEAGVTFDPLCPDLVSRVSVSGISYLGNKINFAFSKDSVTLEVTARAEPWAPLLEAELWPSLAHLPLTPGQKVSFPHSAGRIQRSSP | failed
MSVDTTVKNRVYPAIPPTQLPEFETIFGHPKPLWMLFMAEFWERFAFYGIRWALTLYIVTQFFDGNAIGEGNANSTYGAYLALVYASAIFGGFIADRIIGYQRSIIIGAVIMACGLFLITVPSRTMFEIGLATIVIGNGLFKPNISSLVGQLYAEGDTRRDRGFTIFYMGINAGSLISPLITSWLAGQVFGTPMQQNYKVVFIASGIGMFLSLLWFWIGKRQLKGIGLSPKGGESIFRTFLIVFGALLAIPLAYLLLAKLNATTLAWILGLLFAVLATLLIVTALRNGKIQRDRVIAMLIIFVFNVMFWMFFEQAGSSFNFLAKNIVDRQILSNWEFPVGWFQSVNPLAIILLAPIIAVIWSLLDKYRIEPSIPRKFSFGLMFNGFGFLILMYALSNLLNASNMIPFWSLIAVYVIQTVGELCLSPIGLSMVTKLAPVRLVGFAMGGWFLSTAIGNNLSGVFASFVSGEEGMTVSSALRGYTFGFWSLIGSGILLFLISPLINRLMHGVK | failed
MQEELAWETDGLLPLERQLHEAARQNNVGRMQELIGRRVNTRARNHVGRVALHWAAGAGHEQAVRLLLEHEAAVDEEDAVGALTEARLCFGMNALLLSAWFGHLRILQILVNSGAKIHCESKDGLTLLHCAAQKGHVPVLAFIMEDLEDVALDHVDKLGRTAFHRAAEHGQLDALDFLVGSGCDHNVKDKEGNTALHLAAGRGHMAVLQRLVDIGLDLEEQNAEGLTALHSAAGGSHPDCVQLLLRAGSTVNALTQKNLSCLHYAALSGSEDVSRVLIHAGGCANVVDHQGASPLHLAVRHNFPALVRLLINSDSDVNAVDNRQQTPLHLAAEHAWQDIADMLLIAGVDLNLRDKQGKTALAVAVRSNHVSLVDMIIKADRFYRWEKDHPSDPSGKSLSFKQDHRQETQQLRSVLWRLASRYLQPREWKKLAYSWEFTEAHVDAIEQQWTGTRSYQEHGHRMLLIWLHGVATAGENPSKALFEGLVAIGRRDLAGWSTMARSQLTATSASRVQMILVPQPPE | failed
MKKLSGIIVLLLAGAALYLALKTSPIDPLAWDAPAAPQMTGVLEPNDTLMKAELLGQGQLHGPEDTAVDSQGRVYAGLADGRVVRLDASGKVETFVDTGGRPLGMDFDAAGNLILADAWKGLLRIDPQGKVETLATEADSVPFAFTDDLDIASDGRIYFSDASSKFHQPDYILDLLEARPHGRLLRYDPSTGKTEVLLKDLYFANGVALSANEDFVLVNETYRYRITRYWLKGEKAGQHEVFIDNLPGLPDNLQGDRKGTFWVALPTPRKADADFLHRHPWLKAQLAKLPRMFLPKPTAYGLVIAIDEQGRIVRSLHDTSGHHLRMITSAKPVGDQLYFGSLENDRIGRLAIPLEHHHHHH | not failed
MEAWIFEIMRAVGRFFLHPAVYVFLISSIFVGYLRMLRERKDFSFKVYDIWFELRTSLLAGVKYGLIVSIITIGLGLVVSKASLWAILLWTLLFGLTAMYRYLSAAYTFSVAIVCVLLSSKLPVSFLQLGEGEENTIVSLAILLGIMLVVEGLLISKNAVGYSTPKIRKGKRGLKIGLHESKRLWIVPIFILVPGEAVTQFISWWPVVSIGSHTYSLFLVPFLIGFMRRIRSYEPTEALLFTGRRVYGLAGLVLVLGIASYWWHVLAIIAMGVAMLGRFTISMQEKIADETRPAYFAARNDGLVVLDTIPNTIGAELNLLPGEMITKVNGVIPRSAEEFYDALQTKTTGAFCKLEVLDTNGELRLAQTALYAGGHHELGIVFVQQEHEWDSEAM | failed
MKFGETFDMVLSDVRGKKIHASVKREHLNRFERLIVPGEWRAIENFGLTYATGQFKATDHRYKMGFMAQTRVVRIDPLSDSYFLSLTAFNDVLNGGLNQNYLIDVVGQIVNVGEMETIDVHNQPTKKIDFELRDQKDERLPCTLWGSFAEQVFTACEAANGEMIICLVRFAKLKTYKDVRSISNAFNTSQILINPDLPEILEFKDALPKDCLALTLIESKPKSKIDEFPTGDFYLQFAKKTIKEVSEMFDVGRVKVLCTIYDIDRDWSWYYIVCKKCNKKVTKVVMTSLKAQLWCETCRAPITNVLARYKLHVKVMDSSGEMKLMLFDAMSSEIVGCPANNLLDGSFDEIEDPDILPDSIKNLIGKTYQYLVCVENENKRYQMHDSIDQCSLMLTYSEEPSEATTPSSKRSSDTSISPADNFSTTKKLCLDSIKIVKIKQEMVEKNNEAKVVGEKLNF | failed
MKNNKKGLWGIIVAVGLFLLSKLKWVFAIFKLAKFSTVFSMFLSLGAYAVLYGWKFGVALIYLLFVHEMGHLWAAKRKGIPTSPAIFIPFMGALIGMKEMPKNAKDEAYIAYMGPLFGLLSFLPAIPLYIMTKEPFWALVILLGSMINFFNLIPVSPLDGGRIISVVSTKIWGAGLILLLGYSIYFKSILGGFIVIIGCMELYRVIKRDEPIKELGHKIYGMKEYVTRLEEELKETGAVHRTIYVMHHEMNALRQREREKELQIGELKKMEVLEYLLPKFEPLDYVPYEDEKDEYTIHIREAFEASERKLNEWKTEKEQQENYYKVDAKTKWTVFACYIGLMVILGYTAYEGYIVLQEHLPTRNV | failed
MSYEAIMLERNGAVGVLTFNRPEVLNAYNRTLAADIITGFNELVADKSVRAIVLTGAGKAFMAGADINMVNGWTKLGNAAKIKEDLRQLVNPNMIEDCPKPTIAAVNGLAFGMGCELAMACDFRIAAEKAQFGQPEVKLGIIPGAGGSQRLRELVGPTRALEMISTGDPIDAQEAYRIGLVNQVVPRDELMEAVNAFAGRLIDKGAVVLDICKKLVYEGGDLPLRGGIDYEQDQFCKILLTADAQEGTLAFLEKRKPVFNKG | failed
MDELELRIRKAEKLVQDAKKEFEMGLYERCCSTAYYAMFHAAKAMLLGYGRDSKTHRGTIYLIWECREELGLSDDDCSKLSRAFDLREESDYGIYKEVSKDLAIKILKDAEIFVQKAKNAVNKNR | not failed
MSEKRLPLKPVLRIDFPPGERLGHGKVELMQLIAETGSISAAGRAMDMSYRRAWLLVDALNHMFRQPVICSQRGGKQGGGAALTVFGAELLERYRGMEERMNEALREDIDWLEANRNPQDALNRDREPPTL | not failed
MLELNAKTTALVVIDLQEGILPFAGGPHTADEVVNRAGKLAAKFRASGQPVFLVRVGWSADYAEALKQPVDAPSPAKVLPENWWQHPAALGATDSDIEIIKRQWGAFYGTDLELQLRRRGIDTIVLCGISTNIGVESTARNAWELGFNLVIAEDACSAASAEQHNNSINHIYPRIARVRSVEEILNAL | not failed
MVDYHYFKSKLNHFYGRYVGYNQRPVFFDIDQTFPELNHITRHFPDIKREFENVQANVKEFPRYHDIDPGESAISNTTEKNWNVFMLYLLGYQLKEARLLCPELCNLLEGIPHLIQAFFSILEPGKSIPLHEGPYIGYLRYHLGIHVPQNNPPQILVNNQTYTWKEGEAVLFDDSWPHEVRNTSDDYRAVLIIDVLRPMPFLPQLVNQFVTHVIARYFYGRKVMKRAMQYGGEVKPLALLEHHHHHH | failed
MSAVTYTFLGPQGTFTEAALMQVPGAADATRIPCTNVNTALERVRAGEADAAMVPIENSVEGGVTATLDAIATGQELRIIREALVPITFVLVARPGVELSDIKRISTHGHAWAQCRLWVDEHLPNADYVPGSSTAASAMGLLEDDAPYEAAICAPLIAAEQPGLNVLAEDIGDNPDAVTRFILVSRPGALPERTGADKTTVVVPLPEDHPGALMEILDQFASRGVNLSRIESRPTGQYLGHYFFSIDADGHATDSRVADALAGLHRISPATRFLGSYARADKQPAVVAPHTSDAAFASAHAWVDSILKGS | not failed
MTQHRLNTSQWFGLLGWLVLCYAVAALGAMASIQAASFYAQLQRPAWAPPGWLFGSVWTVLYGMMAVSVWSVWRRGGWAGARVALTLFLVQLALNGLWSWLFFAWHLGAWAFTDIVALWLVLAATIGVFAKRQALAAWLLVPYLAWVSFAAALNFSVWQLNLQMLG | failed
MKLDDLNLFRLVVENGSYTATSRKTMIPVATITRRIQALEDSVNLRLLNRHARKLSLTEAGERFYHECSPLLQRLTSTAEEITDDCRGASGKIKISAPYNLTKRMMMPMFNDFMKKYPDINIELTTENNADQLDPTEWDVIFRVGPQRDSSLIARKIGEVKDILVASQDYLAANPAPNHAEELSNHSLLKGYPLIKWTLINSKGESVVNVERGRFQANALNVVRSACSEGLGITLMPDVMIKEYIESGELLRVLPDWSANPRDIYMLYNHKDHLPEKVRLFIDFVIAYNIH | failed
IIAGETSIPSQGENMPAYHARPKNADGPLPIVIVVQEIFGVHEHIRDLCRRLAQEGYLAIAPELYFRQGDPNEYHDIPTLFKELVSKVPDAQVLADLDHVASWAARHGGDAHRLLITGFCWGGRITWLYAAHNPQLKAAVAWYGKLVGEKSLNSPKHPVDIAVDLNAPVLGLYGAKDASIPQDTVETMRQALRAANATAEIVVYPEADHAFNADYRASYHEESAKDGWQRMLAWFAQY | not failed
MYPLAFAKEGEEVIVKKIDAGCGAMQRLVSMGINIGSKLKVIRNQNGPVIISTKGSNIAIGRGLAMKIMVEDAEYGGENEKLLEHHHHHH | failed
MTTRRLALFDLDHTLLPLDSDYQWADFLARTGRAGDPAEARRRNDDLMERYNRGELTAEQAAEFMLGLLAAHSPVELAAWHEEFMRDVIRPSLTAQAVDVVRGHLAAGDLCALVTATNSFVTAPIARAFGVQHLIATDPEYRDGRYTGRIEGTPSFREGKVVRVNQWLAGMGLALGDFAESYFYSDSVNDVPLLEAVTRPIAANPSPGLREIAQARGWQVIDLFDHLEDAKS | not failed
LKDVLNILLMDEISKLKDFLSNLDYIKPKVNIEEEIIEIRKEDIINALKLFKGKYEIEVDKIPKAVYVYLVKKNILFLYPQRGTLKPQSFLVWNAIKRVL | not failed
MSTALATLAGKLAERVGMDSVDPQELITTLRQTAFKGDASDAQFIALLIVANQYGLNPWTKEIYAFPDKQNGIVPVVGVDGWSRIINENQQFDGMDFEQDNESCTCRIYRKDRNHPICVTEWMDECRREPFKTREGREITGPWQSHPKRMLRHKAMIQCARLAFGFAGIYDKDEAERIVENTAYTAERQPERDITPVNDETMQEINTLLIALDKTWDDDLLPLCSQIFRRDIRASSELTQAEAVKALGFLKQKATEQKVAA | failed
